Results from patent US5820866.
Values belong to the substance of their own block, whether it stands above or below them.

Columns and labels:
[1] = target: IA^b protein (membrane-bound, without covalent peptide); test: inferred from IL-2 production by BO.97.10 with M12.C3 cells and added cOVA peptide
[2] = target: IA^b protein (membrane-bound, without covalent peptide); test: inferred from IL-2 production by BO.97.10 with fibroblasts and added cOVA peptide
[3] = target: IA^b -Ea protein bound by added cOVA peptide (murine; chicken) (UniProt P01012)
[4] = target: IA^b -Ea protein bound by added cOVA peptide (murine; chicken) (UniProt P01012); remark: listed apart in the source
[5] = target: IA^b -Ea protein (membrane-bound IA^b with IEα^d peptide (56-73) joined by a linker to IAβ^b) (murine); test: inferred from IL-2 production by BO.97.10 with M12.C3 cells and added cOVA peptide
[6] = target: IA^d -OVA protein (soluble IA^d αβ dimer with cOVA peptide (327-339) joined by a linker to IAβ^d) (murine)
[7] = target: IE^kd -MCC protein (soluble IE^kd αβ dimer with MCC peptide (91-103) joined by a linker to IEβ^k) (murine)

percent of the IA^b -Ea protein with IEα^d bound to the binding site [1]: 90%
percent of the IA^b -Ea protein bound by IEα^d peptide [2]: 90%
Substance: IEα^d Peptide (56-73)

IL-2 production in the presence of cOVA peptide (M12.C3 cells) (fold less IL-2 production) [3]: 10
IL-2 production in the presence of cOVA peptide (fibroblasts) (fold less IL-2 production) [4]: 10
Substance: BO.97.10 T hybridoma cells (TCR)

percent of the IA^b -Ea protein bound by cOVA peptide [5]: 10%
Substance: cOVA Peptide (327-339) (from UniProt P01012)

digestion of the complex as assessed by SDS-PAGE [6]: > 80%
digestion of the complex as assessed by SDS-PAGE [7]: > 80%
Substance: thrombin (enzyme)
